Literature values as cited in patent US20210338656A1, “IMMUNOSTIMULATORY AGENTS IN COMBINATION WITH ANGIOGENESIS INHIBITORS” (Alkermes Pharma Ireland Limited, priority 2020, published 2021).

Tested on: CD8+ T cells, NK cells, Tregs
Conditions: human patients; cited from earlier work

B1: fusion protein of SEQ ID NO: 1: circularly permuted (cp) IL-2 variant fused to the extracellular domain of the IL-2Rα portion of the IL-2 receptor (protein)
chain: SKNFHLRPRDLISNINVIVLELKGSETTFMCEYADETATIVEFLNRWITFSQSIISTLTGGSSSTKKTQLQLEHLLLDLQMILNGINNYKNPKLTRMLTFKFYMPKKATELKHLQCLEEELKPLEEVLNLAQGSGGGSELCDDDPPEIPHATFKAMAYKEGTMLNCECKRGFRRIKSGSLYMLCTGNSSHSSWDNQCQCTSSATRNTTKQVTPQPEEQKERKTTEMQSPMQPVDQASLPGHCREPPPWENEATERIYHFVVGQMVYYQCVQGYRALHRGPAESVCKMTHGKTRWTQPQLICTG
modifications: Human cpIL-2IL-2R-alpha
notes: circularly permuted (cp) IL-2 variant fused to the extracellular domain of the IL-2Rα portion of the IL-2 receptor
For B1, the “activation of T regs” value is listed as “absence of dose dependent activation”, the “expansion of CD8+ T cells and NK cells” value is listed as “in a dose dependent manner” and the “relative expansion of immunosuppressive Tregs as compared to high dose rhIL-2” value is listed as “at least two fold less”.
